In paper PMC8810855 (2022) one finds Kd data, which are given here for two molecules.

Assay [1] concerns the target T1, Arp2/3 complex (bovine brain) (bovine, UniProt P61157 1-418; A7MB62 1-394; Q58CQ2 1-372; Q3MHR7 1-300; Q3T035 1-178; Q148J6 …). In words: ITC; ATP. In general terms: In ITC the heat of successive injections is recorded.
Assay [2] addresses T1, Arp2/3 complex (bovine brain). In words: ITC; ATP; high-affinity site (Kd1).
For assay [3] the target is unchanged. In words: ITC; ATP; second, low-affinity site (Kd2).

B1: Arpin_CA (Arpin residues S194-D226) (domain or fragment)
chain: SWTDNIMAQKSSKGAAAEIREQGDGAEDEEWDD
What is called Kd is the constant that tells how readily two partners part at equilibrium. The low end stands for a tighter complex, the high end for a looser complex. For B1, the Kd in assay [1] came to 1710 nM.

B2: Hybrid_WH2_C-helix (N-WASP WH2 domain and C-helix with linker and A domain of Arpin) (other)
chain: PVSCSGRDALLDQIRQGIQLKSVADGQESTPPTPAPTSGIVGALMEVMQKRSKAIAAAEIREQGDGAEDEEWDD
Consider B2, for which the Kd in assay [2] turned out to be 36.7 nM; in assay [3] it was 826 nM.
